{"source": "paper doi:10.1101/2025.09.11.675134", "about": "“Biodistribution-Driven Discovery Identifies a Glycosidase-Cleavable Linker to Reprogram Radiotheranostics” (bioRxiv, 2025)", "key": {"[1]": {"assay": "Ex vivo biodistribution of 111In-labeled variants in AR42J xenograft mice", "set-up": "species or system athymic nude mice", "details": "athymic nude, mouse, iv, 1 ug, total radioactivity, 1 h post-injection; for tissue uptake at 1 h: in vivo, AR42J tumor-bearing mice", "method": "For studies involving three variants (DOTA -TATE, DOTA-MVK(ε)-TATE, and DOTA-β-Gal-TATE), AR42J cells (5 × 10^6 cells per mouse) were subcutaneously inoculated into the right shoulder of the mice. Tumors were allowed to grow for 3 weeks, reaching a volume of 100 –200 mm³ before being used in subsequent experiments. For biodistribution or PET imaging studies, mice bearing subcutaneous AR42J tumors were administered 1.4 – 1.8 MBq (1 μg) of 111In-labeled DOTA-TATE variants or 2.7 – 4.9 MBq (1 μg) of 86Y-labeled DOTA-TATE variants via tail vein injection. Biodistribution studies with 111In-labeled DOTA -TATE variants were performed 1 hour post -injection (n = 3 per cohort), while studies with 86Y-labeled DOTA-TATE variants were conducted at 1, 4, and 24 hours post -injection (n = 3 per cohort). Mice were euthanized by CO2 asphyxiation, and 10 tissues, including tumors, were collected. All samples were weighed and counted on a gamma counter (2480 Wizard 3, Perkin Elmer Inc., Waltham, MA, USA). Results are presented as percentage of injected activity per gram (%IA/g) and mean values ± standard deviations. […]"}, "[2]": {"assay": "Histopathology (H&E) after two-cycle therapy", "format": "in vivo, athymic nu/nu mice", "method": "To further assess tissue-level toxicity at the conclusion of the two-cycle therapy study, kidneys, livers, spleens, and tumors from representative mice were collected and evaluated histologically using hematoxylin and eosin (H&E) staining. Microscopic pathology was assessed and recorded in the MHL Pathology Database (Zaphod) according to a standardized five-point grading scale (normal, minimal, mild, moderate, marked). Terminology and criteria for pathological findings were consistent with the INHAND (International Harmonization of Nomenclature and Diagnostic Criteria) guidelines developed by the Society of Toxicologic Pathology.\nAt the conclusion of the two-cycle therapy study, kidneys, livers, spleens, and tumors from representative mice were collected and processed for histological evaluation using hematoxylin and eosin (H&E) staining. Microscopic pathology was assessed and recorded in the MHL Pathology Database (Zaphod) using a standardized five-point ordinal grading system (normal, minimal, mild, moderate, marked). Terminology and diagnostic criteria were consistent with the International Harmonization of Nomenclature and Diagnostic Criteria (INHAND) guidelines established by the Society of Toxicologic Pathology (https://www.toxpath.org/inhand.asp)([57])."}}, "note": "Where two headings read alike, the source gives them in different places."}
{"smiles": "C[C@@H](O)[C@H](NC(=O)[C@@H]1CSSC[C@H](NC(=O)[C@@H](Cc2ccccc2)NC(=O)CCCC(=O)Nc2cc(COC(=O)N(C)CCNC(=O)CN3CCN(CC(=O)O)CCN(CC(=O)O)CCN(CC(=O)O)CC3)ccc2O[C@@H]2O[C@H](CO)[C@H](O)[C@H](O)[C@H]2O)C(=O)N[C@@H](Cc2ccc(O)cc2)C(=O)N[C@H](Cc2c[nH]c3ccccc23)C(=O)N[C@@H](CCCCN)C(=O)N[C@@H]([C@@H](C)O)C(=O)N1)C(=O)O", "note": "[^111In-DOTA-β-Gal-TATE, metal not drawn]", "values": [{"measurement": "tissue uptake at 1 h", "setting": "[1]; i.v. 1 μg (1.4–1.8 MBq), ex vivo gamma counting, mean, n = 3, read-out: Blood uptake", "result": 0.56, "unit": "%ID/g"}, {"measurement": "tissue uptake at 1 h", "setting": "[1]; i.v. 1 μg, ex vivo, mean (± SD), n = 3, read-out: Kidney uptake", "result": "5.19 ± 0.18", "unit": "%ID/g"}, {"measurement": "tissue uptake at 1 h", "setting": "[1]; i.v. 1 μg, ex vivo, mean (± SD), n = 3, read-out: Tumor uptake", "result": "10.8 ± 1.11", "unit": "%ID/g"}, {"measurement": "tissue uptake at 1 h", "setting": "[1]; i.v. 1 μg, ex vivo, mean, n = 3, read-out: Femur uptake", "result": 0.34, "unit": "%ID/g"}, {"measurement": "tissue uptake at 1 h", "setting": "[1]; i.v. 1 μg, ex vivo, mean, n = 3, read-out: Heart uptake", "result": 0.29, "unit": "%ID/g"}, {"measurement": "tissue uptake at 1 h", "setting": "[1]; i.v. 1 μg, ex vivo, mean, n = 3, read-out: Intestine uptake", "result": 0.79, "unit": "%ID/g"}, {"measurement": "tissue uptake at 1 h", "setting": "[1]; i.v. 1 μg, ex vivo, mean, n = 3, read-out: Liver uptake", "result": 0.45, "unit": "%ID/g"}, {"measurement": "tissue uptake at 1 h", "setting": "[1]; i.v. 1 μg, ex vivo, mean, n = 3, read-out: Lung uptake", "result": 0.92, "unit": "%ID/g"}, {"measurement": "tissue uptake at 1 h", "setting": "[1]; i.v. 1 μg, ex vivo, mean, n = 3, read-out: Muscle uptake", "result": 0.17, "unit": "%ID/g"}, {"measurement": "tissue uptake at 1 h", "setting": "[1]; i.v. 1 μg, ex vivo, mean, n = 3, read-out: Spleen uptake", "result": 0.21, "unit": "%ID/g"}, {"measurement": "tissue to tissue ratio at 1 h", "setting": "[1]; AR42J xenografts, ex vivo, read-out: Tumor-to-kidney (T/K) ratio", "result": 2.08}]}
{"smiles": "CSCC[C@H](NC(=O)CN1CCN(CC(=O)O)CCN(CC(=O)O)CCN(CC(=O)O)CC1)C(=O)N[C@H](C(=O)N[C@@H](CCCCNC(=O)CCCC(=O)N[C@H](Cc1ccccc1)C(=O)N[C@H]1CSSC[C@@H](C(=O)N[C@H](C(=O)O)[C@@H](C)O)NC(=O)[C@H]([C@@H](C)O)NC(=O)[C@H](CCCCN)NC(=O)[C@@H](Cc2c[nH]c3ccccc23)NC(=O)[C@H](Cc2ccc(O)cc2)NC1=O)C(=O)O)C(C)C", "note": "[^225Ac-DOTA-MVK(ε)-TATE, metal not drawn]", "values": [{"measurement": "Glomerulopathy, percentage of mice with grade 0", "setting": "[2]; mouse, in vivo", "result": 50, "unit": "%"}, {"measurement": "Glomerulopathy, percentage of mice with grade 1+", "setting": "[2]; mouse, in vivo", "result": 50, "unit": "%"}, {"measurement": "Mice with mild, focal hepatocyte injury", "setting": "[2]; mouse, in vivo", "result": "1 of 6"}, {"measurement": "Tubular damage, percentage of mice with grade 0", "setting": "[2]; mouse, in vivo", "result": 67, "unit": "%"}, {"measurement": "Tubular damage, percentage of mice with grade 1+", "setting": "[2]; mouse, in vivo", "result": 17, "unit": "%"}, {"measurement": "Tubular damage, percentage of mice with grade 3+", "setting": "[2]; mouse, in vivo", "result": 17, "unit": "%"}]}
{"smiles": "C[C@@H](O)[C@H](NC(=O)[C@@H]1CSSC[C@H](NC(=O)[C@@H](Cc2ccccc2)NC(=O)CN2CCN(CC(=O)O)CCN(CC(=O)O)CCN(CC(=O)O)CC2)C(=O)N[C@@H](Cc2ccc(O)cc2)C(=O)N[C@H](Cc2c[nH]c3ccccc23)C(=O)N[C@@H](CCCCN)C(=O)N[C@@H]([C@@H](C)O)C(=O)N1)C(=O)O", "note": "[^225Ac-DOTA-TATE, metal not drawn, reference compound]", "values": [{"measurement": "Glomerulopathy, percentage of mice with grade 0", "setting": "[2]; mouse, in vivo", "result": 17, "unit": "%"}, {"measurement": "Glomerulopathy, percentage of mice with grade 1+", "setting": "[2]; mouse, in vivo", "result": 33, "unit": "%"}, {"measurement": "Glomerulopathy, percentage of mice with grade 2+", "setting": "[2]; mouse, in vivo", "result": 17, "unit": "%"}, {"measurement": "Glomerulopathy, percentage of mice with grade 3+", "setting": "[2]; mouse, in vivo", "result": 33, "unit": "%"}, {"measurement": "Mice with mild, focal hepatocyte injury", "setting": "[2]; mouse, in vivo", "result": "1 of 6"}, {"measurement": "Tubular damage, percentage of mice with grade 2+", "setting": "[2]; mouse, in vivo", "result": 50, "unit": "%"}, {"measurement": "Tubular damage, percentage of mice with grade 3+", "setting": "[2]; mouse, in vivo", "result": 33, "unit": "%"}, {"measurement": "Tubular damage, percentage of mice with grade 4+", "setting": "[2]; mouse, in vivo", "result": 17, "unit": "%"}]}
{"smiles": "C[C@@H](O)[C@H](NC(=O)[C@@H]1CSSC[C@H](NC(=O)[C@@H](Cc2ccccc2)NC(=O)CCCC(=O)Nc2cc(COC(=O)N(C)CCNC(=O)CN3CCN(CC(=O)O)CCN(CC(=O)O)CCN(CC(=O)O)CC3)ccc2O[C@@H]2O[C@H](CO)[C@H](O)[C@H](O)[C@H]2O)C(=O)N[C@@H](Cc2ccc(O)cc2)C(=O)N[C@H](Cc2c[nH]c3ccccc23)C(=O)N[C@@H](CCCCN)C(=O)N[C@@H]([C@@H](C)O)C(=O)N1)C(=O)O", "note": "[^225Ac-DOTA-β-Gal-TATE, metal not drawn]", "values": [{"measurement": "Tubular damage, percentage of mice with grade 0", "setting": "[2]; kidney H&E after two-cycle regimen, 0–4+ scale (normal, minimal, mild, moderate, marked), n = 6", "result": 100, "unit": "%"}, {"measurement": "Glomerulopathy, percentage of mice with grade 0", "setting": "[2]; kidney H&E after two-cycle regimen, 0–4+ scale, n = 6", "result": 67, "unit": "%"}]}
